The text below walks through data of patent US20250257099A1 (priority 2022, published 2025).

Experiment [1] concerns the target MERS-CoV spike (S) protein (MERS-CoV) (UniProt K9N5Q8). Kind of experiment: cell-based or functional assay.
Experiment [2] addresses SARS-CoV-2 spike (S) glycoprotein (SARS-CoV-2) (UniProt P0DTC2). Kind of experiment: cell-based or functional assay.

The substance “EK1 lipopeptide (EK1C4), cholesterol-conjugated” showed an IC50, plaque-neutralization test, MERS-CoV infection of Vero E6 cells in experiment [1] of 8 nM. This substance also had an IC50, plaque-neutralization test, SARS-CoV-2 infection of Vero E6 cells in experiment [2] of 80 nM.
